Test results reported in patent US20230241247.

How the values were obtained:
[1] = biological target: human IgG (total IgG in human serum / pooled human plasma)
[2] = biological target: hamster IgG (IgG in pooled hamster plasma)
[3] = biological target: rhesus IgG (total IgG in rhesus macaque plasma)

B1: immunoglobulin G (IgG)-degrading enzyme from Streptococcus pyogenes (IdeS; Promega) (protein)
chain: DSFSANQEIRYSEVTPYHVTSVWTKGVTPPANFTQGEDVFHAPYVANQGWYDITKTFNGKDDLLCGAATAGNMLHWWFDQNKDQIKRYLEEHPEKQKINFNGEQMFDVKEAIDTKNHQLDSKLFEYFKEKAFPYLSTKHLGVFPDHVIDMFINGYRLSLTNHGPTPVKEGSKDPRGGIFDAVFTRGDQSKLLTSRHDFKEKNLKEISDLIKKELTEGKALGLSHTYANVRINHVINLWGADFDSNGNLKAIYVTDSDSNASIGMKKYFVGVNSAGKVAISAKEIKEDNIGAQVLGLFTLSTGQDSWNQTN
[1]
  cleavage of IgG in serum/plasma in vitro (non-reducing SDS-PAGE, Coomassie stain): IdeS is a highly efficient and specific protease of human IgG, rhesus IgG and hamster IgG
[2]
  cleavage of IgG in serum/plasma in vitro (non-reducing SDS-PAGE, Coomassie stain): IdeS is a highly efficient and specific protease of human IgG, rhesus IgG and hamster IgG
[3]
  cleavage of IgG in serum/plasma in vitro (non-reducing SDS-PAGE, Coomassie stain): IdeS is a highly efficient and specific protease of human IgG, rhesus IgG and hamster IgG
